In the supplement of paper PMC9732359:
± gives the uncertainty stated by the source.

Assay: protein stability index of a GFP-peptide fusion (yeast GPS) (PSI 1-4); higher = more stable; sorted into four equal gates, so the index is relative within each strain
Outline: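 Tiled 17-residue yeast protein peptides were fused downstream of GFP in a plasmid that also expresses Cherry, and the pooled library was carried in yeast. Mid-log cultures in leucine-free medium were sorted into four equal gates by GFP/Cherry fluorescence ratio, and plasmids from each gate were PCR-amplified and Illumina-sequenced, with reads assigned to strains by barcodes. The protein stability index for each peptide was each gate's read frequency times its gate number, summed.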

Sequence | protein stability index (doa10∆) | protein stability index (pdr5∆) | protein stability index (san1∆) | protein stability index (ubr1∆)
LRFPEHTSSGSVSFKVF [BRR2] | 1.59 ± 0.055 | 1.51 ± 0.054 | 1.33 ± 0.1 | 1.57 ± 0.06
LRIELQSVYNDEKLKTE [SRB8] | 3.17 ± 0.22 | 3.23 ± 0.24 | 3.26 ± 0.12 | 
LRKIDMLQKKLVEVEDE [SRB7] | 3.06 ± 0.13 | 3.45 ± 0.11 | 3.42 ± 0.18 | 3.36 ± 0.1
LRLKPGRKYTTLGKLST [RPL16B] | 2.69 ± 0.057 | 2.64 ± 0.062 | 3.03 ± 0.036 | 2.97 ± 0.037
LRLVDDDENNPSHYPHP [RRP6] | 3.11 ± 0.09 | 2.92 ± 0.093 | 2.77 ± 0.069 | 2.89 ± 0.038
LRSTEYSKSFEQFKMVS [POP1] | 2.21 ± 0.089 | 2.63 ± 0.12 | 2.49 ± 0.094 | 2.52 ± 0.11
LSALFTISSKPDILATD [YCS4] | 2.32 ± 0.14 | 2.78 ± 0.14 | 2.72 ± 0.088 | 2.98 ± 0.11
LSEAWRCWKANIPWDVP [PRP8] | 2.15 ± 0.11 | 2.16 ± 0.098 | 1.1 ± 0.15 | 3.42 ± 0.15
LSEDVNLETLVTTKDDL [RPT2] | 3.01 ± 0.13 | 2.87 ± 0.17 | 2.57 ± 0.15 | 2.89 ± 0.096
LSEPLIKIGIRVMKSLS [YCG1] | 1.59 ± 0.066 | 1.98 ± 0.052 | 1.74 ± 0.066 | 1.73 ± 0.06
LSEWEEYLKGSESQLNS [YCS4] | 3.44 ± 0.13 | 3.65 ± 0.13 | 3.46 ± 0.12 | 3.49 ± 0.1
LSHIVYFLVLSPYGNLQ [RPN5] | 1.53 ± 0.054 | 1.33 ± 0.055 | 1.25 ± 0.087 | 1.12 ± 0.034
LSHYAKIRPWRTFRLNE [RPO31] | 2.86 ± 0.058 | 2.4 ± 0.055 | 3.06 ± 0.073 | 2.5 ± 0.051
LSIWIKNYPEYFLKVTF [IRR1] | 1.88 ± 0.056 | 1.77 ± 0.037 | 2.2 ± 0.076 | 1.8 ± 0.047
LSKIKFPESIWKDFTVE [YCG1] | 2.59 ± 0.049 | 1.89 ± 0.04 | 1.87 ± 0.06 | 2 ± 0.03
LSKRQKRKSAQEPELSL [SMC4] | 3.17 ± 0.11 | 3.15 ± 0.078 | 3.09 ± 0.097 | 3.4 ± 0.1
LSLGEAFKKIDAITVKD [COR1] | 3.39 ± 0.29 |  |  | 3.71 ± 0.19
LSLVYEIGGSDLKESMV [ECM29] | 2.98 ± 0.11 | 3.32 ± 0.12 | 3.36 ± 0.051 | 3.28 ± 0.11
LSRPYKALKTNINFASG [CDC53] | 2.4 ± 0.049 | 2.61 ± 0.062 | 2.4 ± 0.057 | 2.66 ± 0.048
LSTGRKFERARGRRRSK [RPL18A] |  |  |  | 3.05 ± 0.1
LTDPMTVMFFYHNKHMM [DIB1] | 2.19 ± 0.075 | 2.04 ± 0.061 | 2.33 ± 0.094 | 1.76 ± 0.041
LTHSTPKNFGIGQAVQP [RPL8A] | 3.06 ± 0.06 | 3.01 ± 0.045 | 3.02 ± 0.033 | 3.18 ± 0.036
LTKFRQKLMQLVVLTDV [RGR1] | 1.26 ± 0.097 | 1.16 ± 0.074 | 1.24 ± 0.18 | 1.13 ± 0.05
LTLKHRQNKVQHQRIVA [RPN10] | 1.54 ± 0.071 | 1.97 ± 0.11 | 2.9 ± 0.25 | 1.84 ± 0.12
LTNEDPPGLMYLKAFDK [SSN2] |  | 2.61 ± 0.26 |  | 3.22 ± 0.13
LTPIQKKIMDETPSRLL [ITC1] | 3.33 ± 0.074 | 3.39 ± 0.062 | 3.16 ± 0.049 | 3.39 ± 0.039
LTQEELERIVQIMQNPT [RPS18A] | 2.64 ± 0.099 | 3.08 ± 0.11 | 2.93 ± 0.064 | 2.75 ± 0.12

Sequence | protein stability index (doa10∆) | protein stability index (pdr5∆) | protein stability index (san1∆) | protein stability index (ubr1∆)
LTQGINGKEVPLAKIYL [MED1] | 2.52 ± 0.26 | 2.95 ± 0.17 | 2.32 ± 0.2 | 2.21 ± 0.23
LTSNISSLVRSCGEEEF [REC8] | 3.33 ± 0.17 | 2.78 ± 0.13 | 2.21 ± 0.13 | 3.25 ± 0.13
LTSQAPQTTQMFQSQSQ [YDL088C/ASM4] | 3.12 ± 0.11 | 3.16 ± 0.071 | 3.08 ± 0.046 | 3.06 ± 0.057
LTWLSSFSVCKIRCFRY [IRR1] | 2.07 ± 0.053 | 1.59 ± 0.054 | 1.58 ± 0.087 | 1.61 ± 0.04
LTYDKDLTNNPQDDDSQ [MTR3] | 2.8 ± 0.073 | 3.21 ± 0.099 | 3 ± 0.081 | 3.1 ± 0.075
LTYKSELSKSRALQENG [YMR153W/NUP53] | 1.89 ± 0.063 | 1.95 ± 0.041 | 2.01 ± 0.085 | 1.87 ± 0.034
LVAAFIASLERELILAK [YCG1] | 1.79 ± 0.065 | 2.21 ± 0.092 | 1.93 ± 0.081 | 1.48 ± 0.053
LVALSNEPAARLGSEAD [FAS2] | 3.44 ± 0.082 | 3.37 ± 0.073 | 3.45 ± 0.054 | 3.32 ± 0.092
LVDSLATFTSIELTSYE [RPN7] | 1.57 ± 0.057 | 2.08 ± 0.061 | 1.68 ± 0.057 | 1.72 ± 0.027
LVEKVYARFKNDFFPGE [ITC1] | 3.47 ± 0.091 | 3.36 ± 0.1 | 3.05 ± 0.058 | 3.25 ± 0.077
LVHDGLARGLRESTKAL [RPS12] | 3.41 ± 0.091 | 3.52 ± 0.15 | 3.19 ± 0.17 | 2.83 ± 0.17
LVHDVVYDFYGRHVATC [YGL100W/SEH1] | 1.46 ± 0.074 | 1.69 ± 0.06 | 1.41 ± 0.12 | 1.38 ± 0.057
LVNRKPIPFEFQAVIQK [SNF2] | 2.65 ± 0.079 | 2.73 ± 0.057 | 2.71 ± 0.048 | 2.83 ± 0.038
LVPKRCLFESLSNEAAL [RPO31] |  | 2.84 ± 0.2 |  | 2.78 ± 0.22
LVPQLGHVGSVQISNIP [PRP8] | 2.32 ± 0.1 | 2.3 ± 0.065 | 1.91 ± 0.12 | 2.72 ± 0.089
LVPTASFFIASQLQEQF [FAS1] | 1.35 ± 0.047 | 1.88 ± 0.053 | 1.53 ± 0.086 | 1.86 ± 0.04
LVQKFGGADQVTRTQQW [SWI1] | 3.08 ± 0.13 | 3.06 ± 0.088 | 2.88 ± 0.13 | 2.78 ± 0.076
LVQLPKSAMDTFKSVSK [POP3] | 2.65 ± 0.052 | 2.85 ± 0.044 | 2.75 ± 0.047 | 2.54 ± 0.036
LVRDSKPSKPFNVDDVL [MED8] | 2.48 ± 0.055 | 2.57 ± 0.044 | 2.46 ± 0.051 | 2.5 ± 0.047
LVRELYQWRDLIARRDD [RRP6] | 2.96 ± 0.056 | 2.77 ± 0.062 | 2.65 ± 0.055 | 2.25 ± 0.043
LVSEARTLWPEFIPPDP [SSN8] | 2.61 ± 0.041 | 2.8 ± 0.043 | 2.73 ± 0.038 | 3.03 ± 0.033
LVSTLTTGISSTGAADG [SMC2] | 2.34 ± 0.097 | 2.65 ± 0.088 | 2.93 ± 0.092 | 2.69 ± 0.059
LVVLTDVVERLHKNFES [RGR1] | 2.49 ± 0.093 | 2.74 ± 0.073 | 2.61 ± 0.12 | 2.96 ± 0.053
LYDLRASYAKIEIKISD [SNU114] | 2.34 ± 0.11 | 2.72 ± 0.084 | 2.22 ± 0.12 | 2.13 ± 0.17
LYDNFVSKFYDKINQLS [RPN9] | 2.78 ± 0.098 | 2.69 ± 0.077 | 1.58 ± 0.15 | 2.43 ± 0.077
LYGTAIGARSQGAKTYL [PRE5] | 2.88 ± 0.13 | 3.21 ± 0.079 | 3.04 ± 0.078 | 3.13 ± 0.079
LYLKVIPMDFIRNVLVT [SSN2] | 1.36 ± 0.094 | 1.11 ± 0.16 | 1.4 ± 0.23 | 1.29 ± 0.16
